Experiment: yeast display, Sf9 membrane polyspecificity reagent, FACS + sequencing; frameworks hold sequencing errors
How it was run: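 In a synthetic yeast display library (Saccharomyces cerevisiae BJ5465), nanobody expression was induced with galactose for 36–48 hours. FACS gates were set low and high (top ~1%) using anti-HA fluorescence for expression and streptavidin fluorescence for binding of the Sf9 membrane reagent. Each polyreactivity label is drawn from the gate of origin.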
For “QVQLVESGGGLVQAGGSLRLSCAASGSIFSYYVMGWYRQAPGKERELVAVITDRGGRTYYADSVKGRFTISRDNAKNTVYLQMNSLKPEDTAVYYCAADDTPYNSKRFDYWGQGTQVTVSS”, the “polyreactivity (PSR sort gate)” value was “high polyreactivity”.
In the case of “QVQLVESGGGLVQAGGSLRLSCAASGSIFTAYAMGWYRQAPGKERELVAAIRWNDGRTYYADSVKGRFTISRDNAKNTVYLQINSLKPEDTAVYYCAARYTDVTPGFAYYYWGQGTQVTVSS”, the “polyreactivity (PSR sort gate)” value is reported as “high polyreactivity”.
With “QVQLVESGGGLVQAGGSLRLSCAASGSIFTAYDKGWYRQAPGKVRDLVAAINVSAGTTYYADSVKGRFTISRDNAKNTVYLQMNSLKPEDTAVYYCATDRSPTPYTRENIYDYWGQGTQVTVSS” the “polyreactivity (PSR sort gate)” value was “low polyreactivity”.
With “QVQLVESGGGLVQAGGSLRLSCAASGSIFTAYTMGWYRQAPGKERELVAAITERGGSTYYADSVKGRFTISRDNAKKTVYLQMNSMKPEDTAVYYCAASTLKDIYLWFRVDYWGQGTQVTVSS” the “polyreactivity (PSR sort gate)” value was “low polyreactivity”.
With “QVQLVESGGGLVQAGGSLRLSCAASGSIFTDNAMGWYRQAPGKERELVAAITSNGGSTYYADSVKGRFTISRDNAKNTVYLQMNSLKPEDTAVYYCAADSLYREDDYWGHGTQVTVSS” the “polyreactivity (PSR sort gate)” value was “low polyreactivity”.
With “QVQLVESGGGLVQAGGSLRLSCAASGSIFTDYALAWYRQAPGKERELVATITWSDATTYYTDSVKGRFTISRDNAKNTVYLQMNSLKPEDTAVYYCARRSRYSKGYDYWGQGTQVTVSS” the “polyreactivity (PSR sort gate)” value was “low polyreactivity”.
With “QVQLVESGGGLVQAGGSLRLSCAASGSIFTENEMGWYRQAPGKERELVATITITGSTNYADSVKGRFTISRDNAKNTVYLQMNSLKPEDTAVYYCAAEQPYKSPWTFGGYDYWGQGTQVTVSS” the “polyreactivity (PSR sort gate)” value was “low polyreactivity”.
With “QVQLVESGGGLVQAGGSLRLSCAASGSIFTFNSMGWYRQSPGKERELVAAIRWSSGRTYYADSVKGRFTISRDNAKNTVYLQMNSLKPEETAVYYCAAKDFGSFYDSGYDYWGQGTQVTVSS” the “polyreactivity (PSR sort gate)” value was “high polyreactivity”.
For “QVQLVESGGGLVQAGGSLRLSCAASGSIFTFYAMGWYRQAPGKERELVAAISSSGTSTYYADSVQGRFTISRDNAKNTVYLQMNSLKPEDTAVYYCNVPMPPAKAEYGYWGQGTQVTVSS”, the “polyreactivity (PSR sort gate)” value was “high polyreactivity”.
With “QVQLVESGGGLVQAGGSLRLSCAASGSIFTFYDMGWYRQAPGKERELVAAISSGGSTTYADSVKGRFTISRDNAKNTVYLQMNSLKPEDTAVYYCAADSQPYLYPVEYDYWGQGTQVTVSS” the “polyreactivity (PSR sort gate)” value was “low polyreactivity”.
With “QVQLVESGGGLVQAGGSLRLSCAASGSIFTGNAMGWYRPAPGTERELVAAITRSGDSTYYADSVKGRFTISRDNAKNTVYLQMNSLKPEDTAVDYCNARWRYLHSYGYWGQGTQVTVSS” the “polyreactivity (PSR sort gate)” value was “low polyreactivity”.
For “QVQLVESGGGLVQAGGSLRLSCAASGSIFTGNAMGWYRQAPGKERELVAGISKSGGSTYYADSVKGRFTISRDNAKNTVYLQMNSLKPEDTAVYYCAAREGWWPYYYWGQGTQVTVSS”, the “polyreactivity (PSR sort gate)” value was “high polyreactivity”.
For “QVQLVESGGGLVQAGGSLRLSCAASGSIFTGYAMGWYRPAPGKERELVAAITSGGGTYYADSVKGRFTISRDNAKNTVSLQMNSLKPEDTAVYYCATTPGWYKVSRRYGYWGQGTQVTVSS”, the “polyreactivity (PSR sort gate)” value was “high polyreactivity”.
For “QVQLVESGGGLVQAGGSLRLSCAASGSIFTGYAMGWYRQAPGKERELVAAITYGSGRTYYADSVKGRFTISRDNAKNTVYLQMNSLKPEDTAVYYCAAKWSPYYYYIGYDYWGQGTQVTVSS”, the “polyreactivity (PSR sort gate)” value was “low polyreactivity”.
With “QVQLVESGGGLVQAGGSLRLSCAASGSIFTHNAMGWYRPAPGKERELVAAISSGGSTYYADSVKGRFTISRDNAKNTVYLQMNSLKPEDTAVYYCAVRQGWYHFRYDYWGQGTQVTVSS” the “polyreactivity (PSR sort gate)” value was “high polyreactivity”.
With “QVQLVESGGGLVQAGGSLRLSCAASGSIFTHYAMGWYRQAPGKERELVAAISRRGGSTYYADSVKGRFTISRDNAKNTVYLQMNSLKPEDTAVYYCANSPDTAKEYDYWGQGTQVTVSS” the “polyreactivity (PSR sort gate)” value was “high polyreactivity”.
With “QVQLVESGGGLVQAGGSLRLSCAASGSIFTLYAMGWYRQAPGKERELVADITFSGGTTYYADSVKGRFTISRDNAKNTVYLQMNSLKPEDTAVYYCATTYYQLYVQGYEYWGQGTQVTVSS” the “polyreactivity (PSR sort gate)” value was “high polyreactivity”.
In the case of “QVQLVESGGGLVQAGGSLRLSCAASGSIFTNNAMGWYRQAPGKERELVAGISIRGSSTYADSVKGRFTISRDNAKNTVYLQMNSLKPEDTAVYDCAADAYLELDPEVDYWGQGTQVTVSS”, the “polyreactivity (PSR sort gate)” value is reported as “low polyreactivity”.
For “QVQLVESGGGLVQAGGSLRLSCAASGSIFTPNAMGWYRQAPGKERELVAAISSSSDRTYYADSVKGRFTISRDNAKNTVYLQLNSLKPEDTAVYYCAAYAQKRYYWGQGTQVTVSS”, the “polyreactivity (PSR sort gate)” value was “high polyreactivity”.
In the case of “QVQLVESGGGLVQAGGSLRLSCAASGSIFTPNAMGWYRQAPGKERELVAAISSSSDRTYYADSVKGRFTISRDNAKNTVYLQMNSLKPEETAVYYCAAYAQKRYYWGQGTQVTVSS”, the “polyreactivity (PSR sort gate)” value is reported as “high polyreactivity”.
With “QVQLVESGGGLVQAGGSLRLSCAASGSIFTPYAMGWYRQAPGKERELVAAISRSGGSTFYADSVKGRFTISRDNAKNSFYLQMNSLKPEDTAVYYFAVVASRSHTETPEYDYWGQGTQVTVSS” the “polyreactivity (PSR sort gate)” value was “low polyreactivity”.
In the case of “QVQLVESGGGLVQAGGSLRLSCAASGSIFTPYAMGWYRQAPGKERELVAAITYSGGSTYYADSVKGRFTISRDNAKNTVYLQMNSLKPEDTAVYYCAAYFNIYGLEYDYWGQGTQVTVSS”, the “polyreactivity (PSR sort gate)” value is reported as “high polyreactivity”.
With “QVQLVESGGGLVQAGGSLRLSCAASGSIFTPYAMGWYRQAPGKERELVADIDASGGGTYADSVKGRFTISRDNAKNTVYLQMNSLKPEDTAVYYCNTDPYSSAWYNYDYWGQGTQVTVSS” the “polyreactivity (PSR sort gate)” value was “low polyreactivity”.
With “QVQLVESGGGLVQAGGSLRLSCAASGSIFTPYVKGWYRQAPGKERELVAAISKRGTRTYYSDSVKGRFTISRDNAKNTVYLQMNSLKPEDTAVYYCNAAVDYGSEHDYWGQGTQVTVSS” the “polyreactivity (PSR sort gate)” value was “high polyreactivity”.
In the case of “QVQLVESGGGLVQAGGSLRLSCAASGSIFTRNAMGWYRQAPGKERELVADISRRGVSTYYADSVKGRFTISRDNAKNTVYLQMNSLKPEDTAVYYCNKLSSYVVARRTTEYDYWGQGTQVTVSS”, the “polyreactivity (PSR sort gate)” value is reported as “high polyreactivity”.
With “QVQLVESGGGLVQAGGSLRLSCAASGSIFTRNAMGWYRQAPGKERELVATIRKNGASTTYADSVKGRFTISRDNAKNTVYLQMNSLKPEDTAVSYCARDHHTKYNYWGQGTQVTVSS” the “polyreactivity (PSR sort gate)” value was “low polyreactivity”.
For “QVQLVESGGGLVQAGGSLRLSCAASGSIFTRNTMGWYRQAPGKERELVAAINRSGGRTYYADSVKGRFTISRDNAKNSVYLTMNSLKPEDTAVYYCAAYTQGSRYDYWGQGTQVTVSS”, the “polyreactivity (PSR sort gate)” value was “high polyreactivity”.
With “QVQLVESGGGLVQAGGSLRLSCAASGSIFTRYAMAGYRQAPGKERELVAAISWIGTRTYYADSVKGRFTISRDNAKNTVYLPMNSLKPEETAVYYCNAVSKVERYSYPHGRPFEYWGQGTQVTVSS” the “polyreactivity (PSR sort gate)” value was “high polyreactivity”.
With “QVQLVESGGGLVQAGGSLRLSCAASGSIFTRYAMGWYRQAPGKEREFVAAISRRGGRTYYADSVKGRFTISRDNAKNTVYLQMNSLKPEDTAVYYCAASEPPGYYIALFDYWGQGTQVTVSS” the “polyreactivity (PSR sort gate)” value was “high polyreactivity”.
With “QVQLVESGGGLVQAGGSLRLSCAASGSIFTRYTMGWYSQAPGKERELVAVISDSSGRTYYADSVKGRFTISRDNAKNTVYLQMNSLKPEDTAVYYCAAEYSDIYEYWGQGTQVTVSS” the “polyreactivity (PSR sort gate)” value was “low polyreactivity”.
With “QVQLVESGGGLVQAGGSLRLSCAASGSIFTRYVMGWYRQAPGKERELVAAISGRGSSTYYADSVKGRFTISRDNAKNTVYLQMNSLKPEDTAVYYCAADRVRRPSPGGMDYWGQGTQVTVSS” the “polyreactivity (PSR sort gate)” value was “high polyreactivity”.
With “QVQLVESGGGLVQAGGSLRLSCAASGSIFTSNAMGWYRQAPGKERELVAAISRRGSNTFYADSVKGRFTISRDNAKNTVYLQMNSLKPEDTAVYYCNTLVNAISYEYYYWGQGTQVNVSS” the “polyreactivity (PSR sort gate)” value was “high polyreactivity”.

— the nanobody polyreactivity screen of Harvey et al. (2022)
